Laboratory results: article PMC9182532, “The RHIM of the Immune Adaptor Protein TRIF Forms Hybrid Amyloids with Other Necroptosis-Associated Proteins” (Molecules, 2022)

B1: YPet-TRIF_(601–712) (domain or fragment, human, UniProt Q8IUC6 601-712, looked up)
chain: APYGARMPFGGQVPLGAPPPFPTWPGCPQPPPLHAWQAGTPPPPSPQPAAFPQSLPFPQSPAFPTASPAPPQSPGLQPLIIHHAQMVQLGLNNHMWNQRGSQAPEDKTQEAE
notes: source: E. coli BL21(DE3), solubilised in 8 M urea, purified (Ni-NTA); not shown: YPet, N-terminal, kept

What was measured:
[1] = target: the molecule itself; test: thioflavin T fluorescence + Congo red absorbance; self-assembly started by dilution from urea into 25 mM NaH2PO4, 150 mM NaCl, pH 7.4, 40 µM ThT, 0.5 mM DTT, 37 °C, 2.5 µM (0.625–5 µM in the concentration series); Congo red on samples dialysed overnight at 0.3 mg/mL
[2] = target: the molecule itself; test: SDS-agarose gel electrophoresis (SDS-AGE); 5 µM alone or equimolar mixtures, kept in 8 M urea (monomer control) or dialysed overnight against 100 mM NaH2PO4, 20 mM Tris, 0.5 mM DTT, pH 8.0, with or without 2% SDS for 10 min; 1% agarose gel with 0.1% SDS; YPet and mCherry fluorescence imaged and overlaid
[3] = target: B1; test: as above; conditions: both partners purified

Row | Binder | binding result [1] | binding result [2] | binding result [3]
1 | Ub-TRIF_(601–712) (domain or fragment, human, UniProt Q8IUC6 601-712, looked up, Kept as monomer in 8 M urea; assembly is started by removing the denaturant; also called wildtype TRIF RHIM; source: E. coli BL21(DE3), solubilised in 8 M urea, purified (Ni-NTA); not shown: ubiquitin, N-terminal, kept) APYGARMPFGGQVPLGAPPPFPTWPGCPQPPPLHAWQAGTPPPPSPQPAAFPQSLPFPQSPAFPTASPAPPQSPGLQPLIIHHAQMVQLGLNNHMWNQRGSQAPEDKTQEAE | binds | – | –
2 | B1 | – | binds | –
3 | mCherry-RIPK1_(497–583) (domain or fragment, human, UniProt Q13546 497-583, looked up, also called RIPK1 RHIM construct; source: E. coli BL21(DE3), solubilised in 8 M urea, purified (Ni-NTA); not shown: mCherry, N-terminal, kept) MPSLHNIPVPETNYLGNTPTMPFSSLPPTDESIKYTIYNSTGIQIGAYNYMEIGGTSSSLLDSTNTNFKEEPAAKYQAIFDNTTSLT | – | binds | binds
